Laboratory results reported in paper PMC2664085.

How the values were obtained:
[1] = substrate: Nc1ncnc2c1ncn2[C@@H]1O[C@H](COP(=O)(O)OP(=O)(O)OP(=O)(O)O)[C@@H](O)[C@H]1O; assay: ATP dependence of 3H-DNPSG uptake into RLIP76-proteoliposomes; format: biochemical, Homo sapiens; settings: co-substrate DNP-SG, 37°C, 5 min, random bi-bi fit
[2] = substrate: N[C@@H](CCC(=O)N[C@@H](CSc1ccc([N+](=O)[O-])cc1[N+](=O)[O-])C(=O)NCC(=O)O)C(=O)O; assay: ATP-dependent uptake of 3H-DNPSG into RLIP76-proteoliposomes, filtration; format: biochemical, Homo sapiens; settings: ATP co-substrate, 37°C, 5 min, random bi-bi fit, labelled compound

B1: recombinant RLIP76 (Homo sapiens) (protein)
chain: MTECFLPPTSSPSEHRRVEHGSGLTRTPSSEEISPTKFPGLYRTGEPSPPHDILHEPPDVVSDDEKDHGKKKGKFKKKEKRTEGYAAFQEDSSGDEAESPSKMKRSKGIHVFKKPSFSKKKEKDFKIKEKPKEEKHKEEKHKEEKHKEKKSKDLTAADVVKQWKEKKKKKKPIQEPEVPQIDVPNLKPIFGIPLADAVERTMMYDGIRLPAVFRECIDYVEKYGMKCEGIYRVSGIKSKVDELKAAYDREESTNLEDYEPNTVASLLKQYLRDLPENLLTKELMPRFEEACGRTTETEKVQEFQRLLKELPECNYLLISWLIVHMDHVIAKELETKMNIQNISIVLSPTVQISNRVLYVFFTHVQELFGNVVLKQVMKPLRWSNMATMPTLPETQAGIKEEIRRQEFLLNCLHRDLQGGIKDLSKEERLWEVQRILTALKRKLREAKRQECETKIAQEIASLSKEDVSKEEMNENEEVINILLAQENEILTEQEELLAMEQFLRRQIASEKEEIERLRAEIAEIQSRQQHGRSETEEYSSESESESEDEEELQIILEDLQRQNEELEIKNNHLNQAIHEEREAIIELRVQLRLLQMQRAKAEQQAQEDEEPEWRGGAVQPPRDGVLEPKAAKEQPKAGKEPAKPSPSRDRKETSI
B1 showed a Km [1] of 4400 ± 700 µM and a Km [2] of 55 ± 4 µM.
